Laboratory results from US20090311278A1, “Novel teleost derived antimicrobial polypeptides” (THE UNIVERSITY OF GEORGIA RESEARCH FOUNDATION, published 2009).

Target: T1, NCAMP-1 (histone H1X-like ODN binding protein), recombinant (Ictalurus punctatus)
T1 chain: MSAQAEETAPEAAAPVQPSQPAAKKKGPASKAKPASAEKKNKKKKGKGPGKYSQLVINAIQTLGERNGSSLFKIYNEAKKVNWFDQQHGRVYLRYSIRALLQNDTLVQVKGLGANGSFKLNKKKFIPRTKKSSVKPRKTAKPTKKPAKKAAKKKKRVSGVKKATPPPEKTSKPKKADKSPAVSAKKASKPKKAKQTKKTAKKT
Test: Southwestern blot
Conditions: tags: C-terminal 6xHis (pET-21b, E. coli); label: biotin (3')
Description: Biotinylated ODNs were used to identify potential. DNA binding proteins in NCC membrane lysate preparations and to evaluate the ODN binding of recombinant NCAMP-1. Membrane lysates were prepared as indicated above. Purified recombinant NCAMP-1 was mixed with SDS-PAGE sample buffer (reducing) prior to electrophoresis. […] Membranes were blocked in Superblock (Pierce, Rockford Ill.) blocking solution with 0.05% Tween-20. ODN's were diluted in Superblock and added to membranes (1 h, room temperature). Membranes were washed (3×) in TBS with 0.5% Tween-20 (TBST). Neutraviden-HRP (Pierce) diluted in Superblock (minimum dilution 1:50000) was added and incubated for 30 min at room temperature. Blots were washed (3×) in TBST and were developed with enhanced chemiluminiscence (SuperSignal® West Pico Pierce, Rockford, Ill.).

TCGTCGTTGTCGTTGTCGTT (ssDNA) [CpG ODN]
binding result: binds

TGCTGCTTGTGCTTGTGCTT (ssDNA) [GpC ODN]
binding result: binds
